Changes are numbered by the printed parent chain.
T1: recombinant, soluble human ASGR-1 (human, UniProt P07306 62-291)
T1 construct: biotinylated in the binning assay; also called soluble huASGR-1; Soluble ASGR-1 (Amgen)
T1 sequence: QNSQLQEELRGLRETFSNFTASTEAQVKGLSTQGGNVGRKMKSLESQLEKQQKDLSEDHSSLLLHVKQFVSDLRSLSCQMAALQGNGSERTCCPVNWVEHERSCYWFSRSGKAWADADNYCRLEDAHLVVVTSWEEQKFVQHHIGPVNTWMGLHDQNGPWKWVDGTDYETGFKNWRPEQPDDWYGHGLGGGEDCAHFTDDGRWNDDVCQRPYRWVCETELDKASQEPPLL

B1: 190E6 (antibody, V domains shown)
VH: QVQLVESGGGVVQPGRSLRLSCAASGFTFSSYGMHWVRQAPGKGLEWVAVIWYDGSNKNYADSVKGRFTISRDNSKNTLYLQMNSLRAEDTAVYYCARDQGVGYDGLDVWGQGTTVTVSS
VL: DIQMTQSPSSLSASVGDRVTITCRTSQGIGNYLAWFQQKPGKAPKSLLYKASSLQSGVPSKFSGSGSGTDFTLTISSLQPEDFATYYCQQYMTYPLTFGGGTKVEIK
notes: hybridoma mAb
B2: 191G10 (antibody, V domains shown)
VH: B1 VH
VL: B1 VL with N31K, A51V
notes: hybridoma mAb
B3: 197F2 (antibody, V domains shown)
VH: B1 VH
VL: B1 VL with T5I, A51T, C88F, M92I
notes: hybridoma mAb
B4: 204G6 (antibody, V domains shown)
VH: B1 VH with A23T, Q100R, L107M
VL: B1 VL with Q3R, V19I, L48I, K50A, K61R, Q90H, M92L, T93S
notes: hybridoma mAb
B5: 192C8 (antibody, V domains shown)
VH: B1 VH with K58E, N59H, T69M, Q100R, D105Y, L107M
VL: B1 VL with T25A, G30S, L48I, K50A, Q90H, M92L
notes: hybridoma mAb
B6: 190F8 (antibody, V domains shown)
VH: B1 VH with S31T
VL: B1 VL
notes: hybridoma mAb
B7: 191A10 (antibody, V domains shown)
VH: B1 VH with V93M, T115S
VL: B1 VL with T25A, N31K, L48I, K50A, S67Y, D82N, T85I, M92S
notes: hybridoma mAb
B8: 193C7 (antibody, V domains shown)
VH: B1 VH with V93M, T115S
VL: B1 VL with T25A, N31K, L48I, K50A, M92S
notes: hybridoma mAb
B9: 191E10 (antibody, V domains shown)
VH: B1 VH with V93M, T115S
VL: B1 VL with T25A, N31K, L48I, K50A, D82N, M92S
notes: hybridoma mAb
B10: 197B6 (antibody, V domains shown)
VH: B1 VH with T78M, V93M, T115S
VL: B1 VL with T25A, N31K, L48I, K50G, D82N, M92S
notes: hybridoma mAb
B11: 191G12 (antibody, V domains shown)
VH: B1 VH
VL: B1 VL with M92I, T102S
notes: hybridoma mAb
B12: 198G3 (antibody, V domains shown)
VH: B1 VH with R19K, S31T, S56T, Y80C
VL: B1 VL with T5A, N31K, S56G
notes: hybridoma mAb
B13: 192H10 (antibody, V domains shown)
VH: B1 VH with V93M, T115S
VL: B1 VL with T25A, N31K, L48I, K50A, S67Y, D82N, M92S
notes: hybridoma mAb
B14: 194C1 (antibody, V domains shown)
VH: B1 VH with K58E, N59H, D99N, Q100R, D105Y
VL: B1 VL with T25A, G30S, L48I, K50A, Q89L, Q90H, M92L
notes: hybridoma mAb
B15: 190G11 (antibody, V domains shown)
VH: B1 VH with S31I
VL: B1 VL
notes: hybridoma mAb
B16: 190C11 (antibody, V domains shown)
VH: B1 VH
VL: B1 VL with A51T
notes: hybridoma mAb
B17: 192G8 (antibody, V domains shown)
VH: B1 VH
VL: B1 VL with M92I
notes: hybridoma mAb
B18: 192G6 (antibody, V domains shown)
VH: B1 VH with I51L, S56T
VL: B1 VL with Q3K
notes: hybridoma mAb
B19: 191G1 (antibody, V domains shown)
VH: B1 VH with K58E, N59H, Q100R, D105Y
VL: B1 VL with T25A, G30S, L48I, K50A, Q90H, M92L
notes: hybridoma mAb
B20: 196C7 (antibody, V domains shown)
VH: B1 VH with K58E, N59H, Q100R, D105Y
VL: B1 VL with T25A, S26N, G28A, G30S, L48I, K50A, Q90H, M92L
notes: hybridoma mAb
B21: 51E3 (antibody, V domains shown)
VH: QVQLVQSGAEVKKPGASVKVSCKASGYTFNSYGISWVRLAPGQGLEWMGWISAYNGNTKNAQRFQGRVTMTTDTSTSTAYMELRSLRSDDTAVYYCARHDFWSGYYKGMDVWGQGTTVTVSS
VL: not shown
notes: hybridoma mAb
B22: 56E3 (antibody, V domains shown)
VH: B21 VH with I34F, L39Q, N60E, R63K, S88A
VL: not shown
notes: hybridoma mAb
B23: 54E9 (antibody, V domains shown)
VH: B21 VH with R63K, F64L
VL: not shown
notes: hybridoma mAb
B24: 53E8 (antibody, V domains shown)
VH: B21 VH with L39Q, N60F, R63K, F64L
VL: not shown
notes: hybridoma mAb

molecular target: T1, recombinant, soluble human ASGR-1; assay: Octet BLI dissociation, pH 5.6 plus calcium
Summary of the method: (§1)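 Antibodies were captured on anti-human Fc biosensors, and soluble ASGR-1 (6 ug/ml) was associated for 2 min in Tris buffer containing 1 mM CaCl2 at pH 7.4, followed by 10 min dissociation under each test condition. The signal at the end of association was set as 100%. Percent ASGR-1 still bound after 1 min of dissociation was compared with the pH 7.4 plus calcium control, and >10% extra dissociation was scored as sensitive.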

% Change Compared to pH 7.4 + Calcium [%] | Binder
-12 | B1
-5 | B2
-6 | B3
-11 | B4
-14 | B5
-5 | B6
-5 | B7
-8 | B8
-9 | B9
-8 | B10
-5 | B11
-4 | B12
-5 | B13
-12 | B14
-8 | B15
-6 | B16
-5 | B17
-6 | B18
-15 | B19
-12 | B20
16 | B21
21 | B22
24 | B23
20 | B24

molecular target: T1, recombinant, soluble human ASGR-1; assay: Octet BLI dissociation, pH 5.6 minus calcium
Summary of the method: as §1

% Change Compared to pH 7.4 + Calcium [%] | Binder
-6 | B1
-5 | B2
-6 | B3
-10 | B4
-14 | B5
-5 | B6
-5 | B7
-8 | B8
-9 | B9
-7 | B10
-6 | B11
-4 | B12
-4 | B13
-8 | B14
-5 | B15
-6 | B16
-6 | B17
-6 | B18
-11 | B19
-12 | B20
42 | B21
16 | B22
75 | B23
64 | B24

molecular target: T1, recombinant, soluble human ASGR-1; assay: Octet BLI dissociation, pH 7.4 minus calcium
Summary of the method: as §1

% Change Compared to pH 7.4 + Calcium [%] | Binder
-1 | B1
0 | B2
0 | B3
-5 | B4
-9 | B5
-1 | B6
0 | B7
-1 | B8
-1 | B9
-1 | B10
-2 | B11
-1 | B12
0 | B13
-7 | B14
-2 | B15
-1 | B16
-1 | B17
-1 | B18
-10 | B19
-8 | B20
65 | B21
75 | B22
79 | B23
68 | B24
